Holding throughout (assay): cell-based or functional assay
Assay [1] addresses T1, beta-catenin in DLD1 TCF/LEF luciferase reporter cells (UniProt P35222 2-781).
T1 sequence (looked up): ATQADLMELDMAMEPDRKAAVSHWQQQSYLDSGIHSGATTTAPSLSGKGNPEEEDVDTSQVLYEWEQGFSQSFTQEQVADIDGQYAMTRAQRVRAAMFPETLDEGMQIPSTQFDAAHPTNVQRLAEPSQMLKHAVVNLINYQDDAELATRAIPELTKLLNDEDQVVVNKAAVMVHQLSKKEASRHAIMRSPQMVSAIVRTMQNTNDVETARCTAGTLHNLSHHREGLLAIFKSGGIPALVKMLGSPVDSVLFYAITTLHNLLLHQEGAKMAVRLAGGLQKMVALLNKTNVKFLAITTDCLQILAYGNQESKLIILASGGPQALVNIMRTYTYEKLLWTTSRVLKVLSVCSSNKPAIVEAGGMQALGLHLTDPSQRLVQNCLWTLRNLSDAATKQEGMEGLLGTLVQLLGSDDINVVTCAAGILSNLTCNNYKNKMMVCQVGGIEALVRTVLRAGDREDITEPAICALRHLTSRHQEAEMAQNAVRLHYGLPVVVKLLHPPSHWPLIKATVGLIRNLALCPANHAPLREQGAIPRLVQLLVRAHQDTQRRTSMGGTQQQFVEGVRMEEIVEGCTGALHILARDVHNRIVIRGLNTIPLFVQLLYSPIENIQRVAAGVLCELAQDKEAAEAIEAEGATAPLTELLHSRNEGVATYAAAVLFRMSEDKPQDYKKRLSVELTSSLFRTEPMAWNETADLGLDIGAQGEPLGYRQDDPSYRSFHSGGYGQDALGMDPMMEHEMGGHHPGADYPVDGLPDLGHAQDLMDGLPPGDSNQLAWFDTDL

A further assay deals with T2, Bcat-Halo (UniProt P35222 1-781).
T2 sequence (looked up): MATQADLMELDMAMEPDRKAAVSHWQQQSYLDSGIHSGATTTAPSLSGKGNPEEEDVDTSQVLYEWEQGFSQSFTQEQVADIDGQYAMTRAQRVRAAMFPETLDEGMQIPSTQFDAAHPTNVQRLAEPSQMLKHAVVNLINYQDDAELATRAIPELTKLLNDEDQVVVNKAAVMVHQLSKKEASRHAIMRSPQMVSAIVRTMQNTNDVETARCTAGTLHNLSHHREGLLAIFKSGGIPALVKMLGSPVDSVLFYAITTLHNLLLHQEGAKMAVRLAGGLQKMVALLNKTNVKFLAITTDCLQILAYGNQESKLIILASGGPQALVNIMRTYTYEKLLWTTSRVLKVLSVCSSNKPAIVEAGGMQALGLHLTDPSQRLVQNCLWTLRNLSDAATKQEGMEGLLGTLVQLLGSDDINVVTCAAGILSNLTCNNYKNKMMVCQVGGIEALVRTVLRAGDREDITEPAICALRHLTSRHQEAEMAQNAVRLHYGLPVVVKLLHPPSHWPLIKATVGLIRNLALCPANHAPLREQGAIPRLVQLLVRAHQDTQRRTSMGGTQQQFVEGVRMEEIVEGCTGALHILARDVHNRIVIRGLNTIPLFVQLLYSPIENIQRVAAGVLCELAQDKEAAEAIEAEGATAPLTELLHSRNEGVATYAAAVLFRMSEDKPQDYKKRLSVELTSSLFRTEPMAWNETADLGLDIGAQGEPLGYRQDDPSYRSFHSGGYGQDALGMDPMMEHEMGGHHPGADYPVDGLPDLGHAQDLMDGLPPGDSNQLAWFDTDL

Assay [2] has as its target T3, beta-catenin in DLD1 TCF/LEF luciferase reporter cells (Homo sapiens (Human), UniProt P35222 1-781).
T3 sequence: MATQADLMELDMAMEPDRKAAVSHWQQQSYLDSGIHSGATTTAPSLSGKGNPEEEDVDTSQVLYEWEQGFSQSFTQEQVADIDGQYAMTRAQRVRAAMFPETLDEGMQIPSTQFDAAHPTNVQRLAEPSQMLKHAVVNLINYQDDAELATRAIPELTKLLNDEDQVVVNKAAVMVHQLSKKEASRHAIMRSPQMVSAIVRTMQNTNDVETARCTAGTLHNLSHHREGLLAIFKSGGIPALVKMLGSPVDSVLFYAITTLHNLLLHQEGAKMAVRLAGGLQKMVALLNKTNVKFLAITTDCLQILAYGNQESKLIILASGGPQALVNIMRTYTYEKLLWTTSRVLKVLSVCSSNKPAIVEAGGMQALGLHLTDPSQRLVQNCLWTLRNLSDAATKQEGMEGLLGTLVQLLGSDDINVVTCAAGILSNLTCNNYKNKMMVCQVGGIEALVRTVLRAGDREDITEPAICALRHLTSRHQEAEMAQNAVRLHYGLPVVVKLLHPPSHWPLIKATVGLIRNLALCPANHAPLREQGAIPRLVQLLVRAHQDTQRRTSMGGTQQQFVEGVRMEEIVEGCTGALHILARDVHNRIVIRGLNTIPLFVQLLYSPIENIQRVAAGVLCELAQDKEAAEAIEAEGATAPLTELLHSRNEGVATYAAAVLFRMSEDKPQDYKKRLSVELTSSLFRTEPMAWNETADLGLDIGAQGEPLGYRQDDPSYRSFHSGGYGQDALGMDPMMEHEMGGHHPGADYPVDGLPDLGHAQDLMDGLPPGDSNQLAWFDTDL

For a further assay, the target named is T4, B-cat-Halo (Homo sapiens (Human), UniProt P35222 1-781).
T4 sequence: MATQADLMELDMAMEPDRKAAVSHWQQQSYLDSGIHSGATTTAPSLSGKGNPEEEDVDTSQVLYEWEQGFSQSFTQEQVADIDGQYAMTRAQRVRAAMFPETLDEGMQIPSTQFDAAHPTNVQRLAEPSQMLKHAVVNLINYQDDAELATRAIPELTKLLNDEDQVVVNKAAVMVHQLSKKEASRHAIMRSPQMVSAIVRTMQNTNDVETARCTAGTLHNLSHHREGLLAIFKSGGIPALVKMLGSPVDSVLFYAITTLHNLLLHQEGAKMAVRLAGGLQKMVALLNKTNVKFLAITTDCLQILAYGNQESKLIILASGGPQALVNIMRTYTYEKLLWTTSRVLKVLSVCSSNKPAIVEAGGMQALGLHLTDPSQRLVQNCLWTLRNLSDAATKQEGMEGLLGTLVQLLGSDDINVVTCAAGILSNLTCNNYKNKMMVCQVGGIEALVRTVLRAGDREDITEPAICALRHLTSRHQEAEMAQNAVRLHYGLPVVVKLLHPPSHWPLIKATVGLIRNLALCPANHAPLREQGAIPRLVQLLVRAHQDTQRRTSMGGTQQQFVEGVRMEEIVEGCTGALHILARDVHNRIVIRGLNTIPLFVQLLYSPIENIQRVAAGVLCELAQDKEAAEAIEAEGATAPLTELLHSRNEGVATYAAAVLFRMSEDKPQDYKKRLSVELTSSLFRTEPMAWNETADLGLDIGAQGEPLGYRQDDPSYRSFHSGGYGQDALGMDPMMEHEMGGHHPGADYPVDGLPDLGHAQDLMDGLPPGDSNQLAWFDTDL

Assay [3] has as its target T5, beta-catenin in DLD1 TCF/LEF luciferase reporter cells (UniProt P35222 1-781).
T5 sequence (looked up): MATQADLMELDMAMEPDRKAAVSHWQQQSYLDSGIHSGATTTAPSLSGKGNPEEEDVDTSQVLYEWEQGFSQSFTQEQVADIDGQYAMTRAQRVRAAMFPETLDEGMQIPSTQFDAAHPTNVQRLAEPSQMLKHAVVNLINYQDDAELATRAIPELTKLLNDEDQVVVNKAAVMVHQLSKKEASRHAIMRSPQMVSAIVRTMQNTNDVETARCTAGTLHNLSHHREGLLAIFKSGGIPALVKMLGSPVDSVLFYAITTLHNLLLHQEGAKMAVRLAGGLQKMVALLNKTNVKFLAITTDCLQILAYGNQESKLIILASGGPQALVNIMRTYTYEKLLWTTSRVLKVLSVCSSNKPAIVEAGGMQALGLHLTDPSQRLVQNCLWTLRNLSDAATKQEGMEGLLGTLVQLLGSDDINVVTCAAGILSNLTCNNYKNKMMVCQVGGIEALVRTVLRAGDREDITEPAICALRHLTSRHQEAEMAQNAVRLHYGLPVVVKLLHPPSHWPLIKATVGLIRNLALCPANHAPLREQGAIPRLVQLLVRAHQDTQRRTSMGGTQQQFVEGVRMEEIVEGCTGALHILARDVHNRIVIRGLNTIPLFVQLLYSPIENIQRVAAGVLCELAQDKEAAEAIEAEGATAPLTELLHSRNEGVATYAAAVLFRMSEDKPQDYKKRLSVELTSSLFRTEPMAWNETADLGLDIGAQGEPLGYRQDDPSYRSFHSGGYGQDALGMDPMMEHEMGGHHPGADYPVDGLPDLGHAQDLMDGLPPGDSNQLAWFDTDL

In assay [4] the target is T6, B-cat-Halo (beta-catenin HaloTag construct expressed in HEK293 cells) (UniProt P35222 1-781).
T6 sequence (looked up): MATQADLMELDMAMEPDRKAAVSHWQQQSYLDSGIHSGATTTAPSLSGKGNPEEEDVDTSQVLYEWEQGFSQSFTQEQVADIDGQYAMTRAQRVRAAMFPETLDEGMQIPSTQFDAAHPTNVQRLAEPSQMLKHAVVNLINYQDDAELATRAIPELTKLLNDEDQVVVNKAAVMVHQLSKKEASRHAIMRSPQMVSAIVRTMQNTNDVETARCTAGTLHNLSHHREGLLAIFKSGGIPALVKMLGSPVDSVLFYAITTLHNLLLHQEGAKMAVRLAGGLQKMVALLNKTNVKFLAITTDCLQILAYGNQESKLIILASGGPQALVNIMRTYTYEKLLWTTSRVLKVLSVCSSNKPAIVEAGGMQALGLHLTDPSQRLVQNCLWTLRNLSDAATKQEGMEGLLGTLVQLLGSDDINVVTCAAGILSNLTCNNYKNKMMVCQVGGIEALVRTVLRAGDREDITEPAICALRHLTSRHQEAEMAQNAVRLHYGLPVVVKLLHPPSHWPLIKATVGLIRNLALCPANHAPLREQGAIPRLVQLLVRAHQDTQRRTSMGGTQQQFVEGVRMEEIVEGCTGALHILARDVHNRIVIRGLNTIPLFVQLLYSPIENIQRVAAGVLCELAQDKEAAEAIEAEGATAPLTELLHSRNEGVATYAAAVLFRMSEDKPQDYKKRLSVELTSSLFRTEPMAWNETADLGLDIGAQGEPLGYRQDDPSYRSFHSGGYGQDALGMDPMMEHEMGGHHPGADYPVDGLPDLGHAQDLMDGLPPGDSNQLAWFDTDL

Starred links: 1 amine or outer side, 2 acyl side, 3 side chain; linkers in the order of their positions; H or OH if unused. Positions of bridges follow the written chain, without caps; N, C: chain ends. Non-standard residues stand in square brackets, D forms with d. Primed or numbered codes have the meaning given here. PyrS2″ = (S)-3-amino-1-((pent-4-en-1-yloxy)carbonyl)pyrrolidine-3-carboxylic acid (stapling residue), C=CCCCOC(=O)N1CC[C@@](N[*:1])(C(=O)[*:2])C1; B5(4) = 2,2-bis(4-pentenyl)glycine = 2-amino-2-(pent-4-en-1-yl)hept-6-enoic acid (stitching residue), C=CCCCC(CCCC=C)(N[*:1])C(=O)[*:2]; PyrS2 = (S)-3-amino-1-((pent-4-en-1-yloxy)carbonyl)pyrrolidine-3-carboxylic acid, C=CCCCOC(=O)N1CC[C@@](N[*:1])(C(=O)[*:2])C1; (Morph)GlnR = (S)-2-amino-5-morpholino-5-oxopentanoic acid, O=C(CC[C@H](N[*:1])C(=O)[*:2])N1CCOCC1; B5(3) = 2,2-bis(4-pentenyl)glycine (stitching residue), C=CCCCC(CCCC=C)(N[*:1])C(=O)[*:2]; Phe(3-COOH) = N[C@@H](Cc1cccc(C(=O)O)c1)C(=O)O; 2F3MeF = Cc1cccc(C[C@H](N[*:1])C(=O)[*:2])c1F; Phe(2-CF3) = N[C@@H](Cc1ccccc1C(F)(F)F)C(=O)O; Bta = N[C@@H](Cc1csc2ccccc12)C(=O)O; αAllylPro = C=CC[C@@]1(C(=O)O)CCCN1; tBuAla = CC(C)(C)C[C@H](N)C(=O)O; 3Thi = N[C@@H](Cc1ccsc1)C(=O)O; PyrS2(4) = not defined here

As for Ac-[αAllylPro]D[tBuAla][B5(4)]D[Phe(3-COOH)][(AcPpz)GlnR]AFL[PyrS2″][2F3MeF][Bta]A-NH2 (staple 1-4, 4-11) [I-2319], in assay [1], the “DLD1 4% Abs IC50” value turned out to be 1.7 µM. Further, in the assay with Bcat-Halo, the “NanoBRET Abs IC50” value came to 1 µM.
The matching figures for Ac-[αAllylPro]D[tBuAla][B5(4)]D[Phe(3-COOH)][(Morph)GlnR]AFL[PyrS2″][2F3MeF][Bta]A-NH2 (staple 1-4, 4-11) [I-2315]: 1.5 µM and 1.2 µM.
Consider Ac-[αAllylPro]D[tBuAla][B5(3)]D[Phe(3-COOH)]AAFL[PyrS2(4)][3Thi][Bta]NAA[dA]-NH2 (staple 1-4, 4-11; reading uncertain) [I-2047], for which the “DLD1 4% Abs IC50” value in assay [2] is 1.3 µM. Besides, the “NanoBRET Abs IC50” value with B-cat-Halo was found to be 2.6 µM.

B1: I-2520 (peptide)
peptide: Ac-[αAllylPro]D[tBuAla][B5(4)]DXQAFL[PyrS2][Phe(2-CF3)][Bta]A-NH2
modifications: staple 1-4, 4-11; not fully specified (residue 6); printed as Ac-PL3-Asp-Npg-B5-Asp-[CH2CChCO2H]TriAzDap-Gln-Ala-Phe-Leu-PyrS2-2F3MeF-BztA-Ala-NH2
For B1, the “DLD1 4% Abs IC50 (uM); TCF/LEF luciferase reporter assay” value in assay [3] came to 5.7 µM. Also, in assay [4], the “NanoBRET Abs IC50 (uM); Bcat-Halo / TCF4-Luc in HEK293 cells” value worked out at 5.9 µM.

These data come from patent US20240116985A1 (published 2024).
